In IntAct's records for PubMed 17318191:

B1: Catenin beta-1 (Homo sapiens), P35222 (parent)
chain: MATQADLMELDMAMEPDRKAAVSHWQQQSYLDSGIHSGATTTAPSLSGKGNPEEEDVDTSQVLYEWEQGFSQSFTQEQVADIDGQYAMTRAQRVRAAMFPETLDEGMQIPSTQFDAAHPTNVQRLAEPSQMLKHAVVNLINYQDDAELATRAIPELTKLLNDEDQVVVNKAAVMVHQLSKKEASRHAIMRSPQMVSAIVRTMQNTNDVETARCTAGTLHNLSHHREGLLAIFKSGGIPALVKMLGSPVDSVLFYAITTLHNLLLHQEGAKMAVRLAGGLQKMVALLNKTNVKFLAITTDCLQILAYGNQESKLIILASGGPQALVNIMRTYTYEKLLWTTSRVLKVLSVCSSNKPAIVEAGGMQALGLHLTDPSQRLVQNCLWTLRNLSDAATKQEGMEGLLGTLVQLLGSDDINVVTCAAGILSNLTCNNYKNKMMVCQVGGIEALVRTVLRAGDREDITEPAICALRHLTSRHQEAEMAQNAVRLHYGLPVVVKLLHPPSHWPLIKATVGLIRNLALCPANHAPLREQGAIPRLVQLLVRAHQDTQRRTSMGGTQQQFVEGVRMEEIVEGCTGALHILARDVHNRIVIRGLNTIPLFVQLLYSPIENIQRVAAGVLCELAQDKEAAEAIEAEGATAPLTELLHSRNEGVATYAAAVLFRMSEDKPQDYKKRLSVELTSSLFRTEPMAWNETADLGLDIGAQGEPLGYRQDDPSYRSFHSGGYGQDALGMDPMMEHEMGGHHPGADYPVDGLPDLGHAQDLMDGLPPGDSNQLAWFDTDL

Variants of: B1
Conditions: with axin1_human AXIN1, O15169
axin1_human AXIN1, O15169, sequence (O15169 whole entry): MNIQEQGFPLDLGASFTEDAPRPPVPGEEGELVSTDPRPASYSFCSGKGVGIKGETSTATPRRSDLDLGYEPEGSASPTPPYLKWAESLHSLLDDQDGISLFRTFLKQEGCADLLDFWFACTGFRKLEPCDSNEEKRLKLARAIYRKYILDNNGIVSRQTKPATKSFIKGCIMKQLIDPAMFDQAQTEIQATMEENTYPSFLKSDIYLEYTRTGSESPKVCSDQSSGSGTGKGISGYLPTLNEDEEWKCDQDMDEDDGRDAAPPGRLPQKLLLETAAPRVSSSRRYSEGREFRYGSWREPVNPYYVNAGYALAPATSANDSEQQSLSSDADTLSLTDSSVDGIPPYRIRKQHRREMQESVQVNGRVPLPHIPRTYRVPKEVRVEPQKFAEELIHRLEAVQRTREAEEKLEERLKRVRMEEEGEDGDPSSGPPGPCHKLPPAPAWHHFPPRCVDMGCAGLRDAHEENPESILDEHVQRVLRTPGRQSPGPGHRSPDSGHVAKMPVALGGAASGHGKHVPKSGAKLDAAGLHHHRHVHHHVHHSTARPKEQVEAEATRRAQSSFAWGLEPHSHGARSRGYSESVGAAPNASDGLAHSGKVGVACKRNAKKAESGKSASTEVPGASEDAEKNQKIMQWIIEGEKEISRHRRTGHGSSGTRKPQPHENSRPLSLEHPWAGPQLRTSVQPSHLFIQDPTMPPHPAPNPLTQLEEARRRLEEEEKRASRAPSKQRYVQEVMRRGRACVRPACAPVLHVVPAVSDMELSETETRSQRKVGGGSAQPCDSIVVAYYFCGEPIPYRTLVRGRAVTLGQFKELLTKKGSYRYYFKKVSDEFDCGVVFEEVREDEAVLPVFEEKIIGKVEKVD

Row | effect of a mutation on the interaction | Variant
1 | decreasing interaction | Y654F
2 | disrupting interaction | Y142F
